# Laboratory results reported in the DeepSol protein solubility set.
# Experiment: soluble on expression in E. coli; label from the status in PepcDB or PDB records
row,Sequence,soluble on expression in E. coli
1,MAHHHHHHMLPHSVPTSPHQERDRPLEQMTDEELRRELVMLIRTNAILAEESAGLQADISALCEESVRFQQSTEIEEDKVTNQLLRRLQSEEVQKHRFHHQILCEEKARRKIMDQITQVRQQMELEKQLEQEQEVQRMELQRKLIDVVNKKIEVERQLLEERRVQLEALTTKLASIKEGSLAAKSKVDGAVGSRGTQGPSASSQQCQSGTANMTHESPAAAAAAAVAASSQPPPVKTETVPSSVDLPASDVAGDDTHGTIIRLEEQLNRLLEQHAAATQASATNESLCTELGRNLETIQQAASVDRARTLKLKEELQETKRRVAVLEQRAAVGTAYAASDDSSDLPTPSVSSLYDDKRRESLLNCHQRYPSSCVPPSCSASEAGEDTRSV,not soluble
2,MAHHHHHHMLQRLSHRSVLGYHGAPQVAALRCSLRFGTNIGGSYYQESDTAGTHQMNNDIRLGLVIKPQSTLVELWEQALKAWPTRRFLGSKMWVRGKLGYVWATYESINTEVEAMRTLLHSMGVEKGSRVVVISENRYEWVVVHFATMQLGAHFVALPTNVTPSEAQLVVKSTQSKVLFVETKASYAAIKGWIGRVGQLEHAICFEDQVGEGSYAVAISIAADVPEKTLARTDVRAEDTAMIVFTAGTTGPPKGVMLSHKSIVANVSSVYASLGEALTHSDMFMSLCSWCVAGALTTDLYQALCKGACVCIPPEILEGFQDLPLVNPSVIVSVAQPFQRAYANIVDDILNRRSFTKDLTRFVVGRITENRLMFKKPGRTLQAFSHALLGKFKAQFGSELRVAIIIGHQLTKDQSELMADLDVFVVNTYGFMEAGGLVATDVDVPQRLKALPGLEVRVVNEKNEIVAPGDLGEILIEAPNAMQGYFDVHIDPEEAKNSLVEYGSRTFVRSGDYGTLTGGWITVKGNKDVLITLANSKTVNPLEVEAALTKSPFIKQVFIYGNRHPYVVALVVANTKAIAAHLRKVERRDGVPLVNDREKADCIRAELRRVSQDLPPRAHVRRFAFVDEFTLANGFMTVKMGYARQKIEDHYVHYFEALYDETPKFYGFAVDDYDDLF,soluble
3,MAHHHHHHMLQWVVKEVEGPFGNIATIHWAVPEGQDDGESSDNTAESQKLHHKVGQGGKVQPELQHLLEDAEDQLGAVLWNSNSVAMGHLQKHVLQNHDKACHVVELGAGVGCLGIGLAMAGARVVITDMKELVPLMEKNIELNKERILSRSNGKGSCVAMTWRWGPPPLVKQKHNAKRVKINNARQHSSNADVPSAQNERGRSPYLLPSPAFVEMQRLLDHVDLVVLCDALYGNPKSWPQLLYTLSEILAANPRCEVINFCEQRVDDVEGDFLNLLQQENAKLPPPANSAVGPEGNETMEEALLRMRGSYKWSTSTEVVGEGPSDLGMPVRVTRISWVHRSGKWGTGASTASRDVVVDGADLGR,not soluble
4,MAHHHHHHMLRIGRTLLAEVTTINSTTASVSGRLIRIRKKSKWIDRRSTRVPHNGKDIWYFGDQPSCALCHIRFRYKQDYEAHKESELHVNRLRWVETMNWWRETGEPAYLKASNEQWEWFEQHVLPTKAQEMGCTLDEARRVYRQAIMTETPTWHRPLQCPTVKQEVQEPRDQRWPASPKW,not soluble
5,MAHHHHHHMLVSERAQPVRLFNCLLLRAHKDDESDGAACALHKNAASTSPTTDPIAAATAVGATRLYFTEGGPSSSLTALQRYLKVEEAHTTCPLLRVLQLAPQAPTGNMQPLVYVELDTPNAVSLSDDAQGRREAVLTTCSGVCTQETMPSRWYHAPVKATLCVFQEFMRAPTTSAASEPAFWAFLESVVRYHARDFYCGAVQVELQCVFVPTFEEKQNTAYSVDVFGDYVNEKEGQAQQSSPAAGKGRTAMKICVKSTEAFEHVMAYLKTQCPLLEADFRSSHLVVYAKWSSQLSAVRDSSHSQPPAADATGAVEQAACFVWLQDDAGGGGRDGVYADAALEALLDELTLAAASISTPSRAAAVLQEEGVSSFFEACCLTHTLKRVIRKHFQAVVLRQRPLFHWVISLPPYARLSRSTTSAAVTAMRFRDNAAVSRAVWGATQMLVHWQQLSNSAHALANEALKQSFGRGSGPSRQIVSAPARVPRQRRAIQQSALYGDTFSGGSALDRQRGKVNVPHLYGADEGHDASISLSSAQRGSVMAASGLFHNLRSIKEDSFNNTSVLDAEDVFGSNPKLTTRVVKRLAQSRTSVHTAQ,not soluble
6,MAHHHHHHMMGHLTLPQLCLNVQHGKYSKKTQRPPTLSQRCVTTLISSRISRKLSPADCPTYTSTLLSAEGSTTENLKYNHRGPTTTFSATASNPIIFPN,not soluble
7,MAHHHHHHMMRSPFERLYHLNNRRDRDERRNKVFQLSLLERIRDRIVSGSLKEDIARKEERLRKQEEMLTSPNGVFVRLYQNSSPRRSSNAAAEGSDCKSVGEGNRDGRASVNTTGVSSQRASTARSRMSAAESQELCNRLYETAAIVKQKKEAMRKQSVEERQRQQAEELLIARLAGQIQLERSRTRASSKRRPKTPAQLEDEARAALEKLRKEDPEGYEKKVLRGRLLSPAERVMQAERLWKHGYISKAKLEAQKKVLELKKCTFQPTINEFSGSAGVAGSGETRGKGGGGTNDDKHLSAGTDRAQRHRKANRFEELYRKGIQAKVRGETLREERDREARLRILRSRMVSDHHFRRRVELDPLLAERFMKSLVV,not soluble
8,MAHHHHHHMMSMRPTTGMAPPPTGMAFSATGSSHTGPMRPTTTMGGGTTLGRIQAQVQEGTFTSTVYGYIRDHQYEEAVELLATQLEEFPRSRAAASLMAYCYYMMGDYGEAASLYEQLTKICPNIEEYRVYYAQSLYKAGAYAESNRLCTLITSPQNQTTLNKLQAAIAYEQEDIPQTKSFLDQAPETDTDMLVLRACVLSKEGSYEEALEKFKEAQNAVGFSAALTYNMALMYYKMEQYGPALRHLAEIIDRGVEEHPELNIGTNTEGGEARSVGNTQLLRETALIEAFNLKAAIEYASKNMQAAKEALTDMPPRTDAELDPVTLHNTALINMDENPTNAFKKFNFLLQNPPFPPETFQNLLLFYCKYQYYDLAADVLAENPHLAWQYLSQNNQSLYDFLDGLITAQTSPAEAYRKFDILAQKMVQQLRNMTRRIQEADQSQDAAVAKTAVRTYDVTLEEYIPVLMAQANIYWEMENYPMVEQLFRQSADFCSENDVWKQNVAHVFFMQETKFKEAIRYYSPVVEANRENILNCSAIVLANLCVSYIMTAQNEQAEEIMRRIERAEERLTYEDSSKQPLHLCIVNLVIGTLYCSKGNFEFGISRIIKSLEPYDRKIMTDTWFYAKRCFLALAMNLAKHMVSLKDSSFEEILFFFDQADLHGEKIFAFIHPDPSKQDTSPRNTARWEARQLKKLYLTLKE,not soluble
9,MAHHHHHHMNEIVINNLNYNYYNGIQRTRIKALQNVNLCFERGMRILVCGKNGAGKSTLLSIIAGKKLIKENEVLIFNKQAFHDTDISNKIGYVGEWWSEEYAMNISIKDFCFNYEYTKRYKNLLKLFELDENKIISNLSKGERKKVQIMVNIIVRKDIYIFDEATESLDLVSRKLLLE,soluble
10,MAHHHHHHMNIALSHIKKQRCARLYSISSSNNMENLSVAIKIHKYEQTENAPNITNYGYCSGFIKNLKINDDIYLTGAHGYFNLPNDAIQKNTNFIFIATGTGISPYISFLKKLFAYDKNNLYNRNSNYTGYITIYYGVYNEDSILYLNELEYFQKMYPNNINIHYVFSYKQNSDATSFYVQDEIYKRKTEFLNLFNNYKCELYICGHKSIRYKVMDILKSHDQFDEKKKKRVHVEVY,not soluble
11,MAHHHHHHMPCEGCGLSEAAMQCPTCKKLDMPPSYFCSQACFKEHWADHKLKHTQSALPTIPTMTEAAMNAFNFTGSLRPGRITPRRAVPSHIPRPDYANRADGLSPAEEKDRGAKVRVYNLQSLHDDSKETADIQRVKKVCRLSREVLDIATAAVRPGVTTDEIDRIVHEATIERDMYPSPLNYYNFPKSVCTSVNEVICHGIPDSRGLEEGDIVNIDVSSYLNGFHGDLNETVFVGKPDADSVRLVHAAYESLYAGIKVVKPEALYKHVGDAIEACAVQYGCSVVRAYTGHGVGHLFHTAPTVCHYANNKSLGMMRPGHVFTIEPMINLGTWQDVTWPDNWTSTTRDGKRSAQFEHTMVVTNDGAELFTDWTDGIPTYQKQLEGWNIPLPSPSNGVAH,not soluble
12,MAHHHHHHMPDDRRRASRTDDALVAHRPADSASPVERRTRVDPRTHTKSLYQRGRDGSEMYASYYNSNDDPAFQERFNRHSNGNAFVQSAQFTYVSHGGCGGRNHTVVKERQRPVVVEEPDDADRHEASTDSGNNANVHAKHKDKEKRRSSKQDPIVEEPDSEDDYNDADSRAYRRGGKKGEFGSHPDALEFWRDPWGMESIMAEMMQPPLGFGDAFPFTSRRAPAQRRLKSPSVSNESKWQLSPHTRGGVMSSPFTGDLFGTGGPESPFRMMEAMQYHMHQQRAAMFGGVDPFRHFM,not soluble
13,MAHHHHHHMPIHQYEGWSYERLRQQRNRAHFLLEDPYRYVTVLLISKPGRPEELKCIDSPCYHAAGPLGEGDIVEIEDLLCLRCPWHRYLVNIENGEEILLRVDPASAQGAGIVGRQAALPTYPMHFTDPSAEGVTVVHGEKVQRVHRAWLEEATGILSIEVAEEAVMRQHPVKSDKPAGNVKNGGICMQIFDIKLRGLDKL,not soluble
14,MAHHHHHHMPLCASIPATVDTDTNTRALYLDDLDKCMKNFSSALASTMNAYQNLLTAFDQVAQVYGNVAQECGDEVRKPVGEFRDGMRDLKDKGGFETFNHEIHVGTIAVIEPVKSDLKKALKSLKCLRLKQKEYDAVRYDLEQTEKSYAKKNKPLVTSSSYKKTLAKRDKVKTSYDASREAFGEEINALQATTKSVLLQSLNNYLHCTAAFCGQLEATMNGYRTDVDHHGSTTFTNDQMDKLKEKAEAESMARRAKRKSEASNPFQTGYDVTSNNSHRNLPSVDDGLYQKKDSLVDTESVNRYPNAEFAPPMQNGGDDNFTLREQYDDGAPGDADDVNPLVDANNDE,soluble
15,MAHHHHHHMPTSSWRAEHLLIKHSGSRNPVSRRTGQPTTISYEEAVTELQKWCQSINDGKVTFEEAARQRSDCSSYARGGDLGVFGPGEMMKPFEDATKSLEVGQVSGIVVTDSGVHIIKRIA,soluble
16,MAHHHHHHMPTYVGKEAPFFKAEAVFGDNSFGEVNLTQFIGKKYVLLYFYPLDFTFVCPSEIIALDKALDAFHERNVELLGCSVDSKYTHLAWKKTPLAKGGIGNIKHTLLSDITKSISKDYNVLFDDSVSLRAFVLIDMNGIVQHLLVNNLAIGRSVDEILRIIDAIQHHEKYGDVCPANWQKGKVSMKPSEEGVAQYLSTL,not soluble
17,MAHHHHHHMQIGLAGCSSSLHTSPSSGSAAGSGFYGARGQEAAASATVNSSGANGLCAGATMSSPSATPTLPPLPSTMDEPVDLFPLTPSVSMLQRHSKRSGRLLNESETMQEKHGQEYRFLVPWLAYAIDCTIAAHEVLRQKHGIPAHVSSPASPSANTLNGATDVKRSSRGSANGDPTYADTAGGSSGSGQAALPSPQAELNAFSTREVPAISVHDYLKRIVKYTYVSPSVLVCGCLYLDRLLCMHPCMLLHPYNVFKLFLTSTRMASKIMDTRTLNNHDFSVVGGVTNDDLNALEFLMVELLQNRLYFSRDTFDEYCRPLRLQAAHLTEEASDWGAETAMETPVETRSGVQHQPTRPFLARCNGSNTRSRRSSILSQNEYSVSIASQSGVSPLRSASRPAFPPSASTARSISVDTESIGPARAPASRGGSASTSAPRHPLGTSYSPALPHVPHTAANGGSSPALGAMGGLSGRGASGEDMLRVATHTNSIYQSSNGVWTGQTPPDSVTVLVGVEERGDERARSISLSAPRCGATTSWDATGRPSRLLAASTSTMAGLCTAALNGGRGGYESSPNVCAAPTYNRASASSSRGITASAEDFGAGSMVISYSDRTPTRRAFSHASREGIALPPVVCSGRSERSASVIGVAAQGQRLPPPPDQPRV,not soluble
18,MAHHHHHHMQMEEKQAFFVESVDGRKFKMVIRGDLGKLSVAKIRRYLKSYGVPENQLLLAGNRVLEDAMLGEQFGLENEGVLHLREPTTVQHLAPAAVPSTAQSRTQLQQKPELSYEPQSAWRETRYEPAAHDARQMQREIERLQRQVEAAEARNADLEHQLEQVAESSAPYPPRGGA,not soluble
